This note sets out measurements from the supplement of paper PMC10567573.

First the molecules themselves.
B1: RSAD1 (parent)
chain: YCNFNKYIPRRLEEAAMQKCLVTE
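Note: lentivirally expressed fusions sorted by FACS into six bins by GFP to DsRed ratio, PSI derived from sequencing read proportions per bin multiplied by bin number.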

Variants of B1 are the subject of this series. The series is described as follows: protein stability index of a GFP-peptide fusion (GPS, HEK-293T) (PSI 1-6); higher = more stable. The settings on record: c terminus: a fixed tail appended.
As for YCNFIKYIPRRLEEAAMQKCLVTE [N5I], the protein stability index worked out at 2.17.
With YCNFFKYIPRRLEEAAMQKCLVTE [N5F], the protein stability index is 1.25.
The result for YCNFMKYIPRRLEEAAMQKCLVTE [N5M] reads 2.72; that for YCNFNKYIPRRCEEAAMQKCLVTE [L12C], 1.96.
Take YCNFNKYIPRRIEEAAMQKCLVTE [L12I]: the protein stability index came out at 2.98.
For the variant YCNFNKYIPRRKEEAAMQKCLVTE [L12K], the protein stability index worked out at 2.42.
The result for YCNFNKYIPRRDEEAAMQKCLVTE [L12D] reads 2.19; that for YCNFNKYIPRRWEEAAMQKCLVTE [L12W], 4.96.
In the case of YCNFNKYIPRRPEEAAMQKCLVTE [L12P] it was 2.95; in that of YCNFNKYIPRRNEEAAMQKCLVTE [L12N], 3.28; in that of YCNFNKYIPRREEEAAMQKCLVTE [L12E], 2.46.
The result for YCNFNKYIPRRYEEAAMQKCLVTE [L12Y] reads 3.24; that for YCNFNKYIPRRFEEAAMQKCLVTE [L12F], 2.15; that for YCNFNKYIPRRTEEAAMQKCLVTE [L12T], 2.
Regarding YCNFNKYIPRRVEEAAMQKCLVTE [L12V], the protein stability index amounted to 2.74.
Turning to YCNFNKYIPRRGEEAAMQKCLVTE [L12G], the protein stability index is 2.96.
In the case of YCNFNKYIPRRSEEAAMQKCLVTE [L12S] it was 2.45; in that of YCNFNKYIPRRHEEAAMQKCLVTE [L12H], 2.52; in that of YCNFNKYIPRRMEEAAMQKCLVTE [L12M], 2.83.
The result for YCNFNKYIPRRREEAAMQKCLVTE [L12R] reads 2.41.
The result for YCNFNKYIPRRQEEAAMQKCLVTE [L12Q] reads 4.
Take YCNFNKYIPQRLEEAAMQKCLVTE [R10Q]: the protein stability index was determined as 1.96.
In the case of YCNFNKYIPFRLEEAAMQKCLVTE [R10F] it was 2.22; in that of YCNFNKYIPYRLEEAAMQKCLVTE [R10Y], 2.26.
In the case of YCNFNKYIPWRLEEAAMQKCLVTE [R10W] it was 3.64; in that of YCNFNKYIPSRLEEAAMQKCLVTE [R10S], 1.48; in that of YCNFNKYIPDRLEEAAMQKCLVTE [R10D], 1.92.
Take YCNFNKYIPKRLEEAAMQKCLVTE [R10K]: the protein stability index came to 1.64.
The result for YCNFNKYIPIRLEEAAMQKCLVTE [R10I] reads 2.39; that for YCNFNKYIPERLEEAAMQKCLVTE [R10E], 1.26; that for YCNFNKYIPGRLEEAAMQKCLVTE [R10G], 1.24.
For the variant YCNFNKYIPMRLEEAAMQKCLVTE [R10M], the protein stability index was found to be 2.53.
The result for YCNFNKYIPLRLEEAAMQKCLVTE [R10L] reads 2.63; that for YCNFNKYIPNRLEEAAMQKCLVTE [R10N], 2.33; that for YCNFNKYIPARLEEAAMQKCLVTE [R10A], 1.91.
On to YCNFNKYIPCRLEEAAMQKCLVTE [R10C], for which the protein stability index worked out at 3.8.
The result for YCNFNKYIPPRLEEAAMQKCLVTE [R10P] reads 1.74; that for YCNFNKYIPTRLEEAAMQKCLVTE [R10T], 1.59.
With YCNFNKYIPHRLEEAAMQKCLVTE [R10H], the protein stability index turned out to be 1.94.
Take YCNFNKYILRRLEEAAMQKCLVTE [P9L]: the protein stability index was 2.28.
With YCNFNKYICRRLEEAAMQKCLVTE [P9C], the protein stability index is 3.11.
In the case of YCNFNKYIERRLEEAAMQKCLVTE [P9E] it was 3.05; in that of YCNFNKYIYRRLEEAAMQKCLVTE [P9Y], 2.48.
As for YCNFNKYIKRRLEEAAMQKCLVTE [P9K], the protein stability index was determined as 1.73.
The result for YCNFNKYISRRLEEAAMQKCLVTE [P9S] reads 2.52; that for YCNFNKYIDRRLEEAAMQKCLVTE [P9D], 2.38; that for YCNFNKYIQRRLEEAAMQKCLVTE [P9Q], 1.54.
The result for YCNFNKYIGRRLEEAAMQKCLVTE [P9G] reads 2.12.
The result for YCNFNKYITRRLEEAAMQKCLVTE [P9T] reads 1.79.
Regarding YCNFNKYIRRRLEEAAMQKCLVTE [P9R], the protein stability index was 1.37.
In the case of YCNFNKYIARRLEEAAMQKCLVTE [P9A] it was 2.11.
The result for YCNFNKYIIRRLEEAAMQKCLVTE [P9I] reads 2.85; that for YCNFNKYIHRRLEEAAMQKCLVTE [P9H], 2.14.
In the case of YCNFNKYINRRLEEAAMQKCLVTE [P9N] it was 1.82; in that of YCNFNKYIVRRLEEAAMQKCLVTE [P9V], 2.71.
YCNFNKYIWRRLEEAAMQKCLVTE [P9W]: the protein stability index is 2.6.
The result for YCNFNKYIMRRLEEAAMQKCLVTE [P9M] reads 1.4.
In the case of YCNFNLYIPRRLEEAAMQKCLVTE [K6L] it was 2.58; in that of YCNFNTYIPRRLEEAAMQKCLVTE [K6T], 2.79.
For the variant YCNFNCYIPRRLEEAAMQKCLVTE [K6C], the protein stability index worked out at 1.43.
In the case of YCNFNRYIPRRLEEAAMQKCLVTE [K6R] it was 1.7; in that of YCNFNMYIPRRLEEAAMQKCLVTE [K6M], 3.03.
In the case of YCNFNWYIPRRLEEAAMQKCLVTE [K6W] it was 2.56.
As for YCNFNPYIPRRLEEAAMQKCLVTE [K6P], the protein stability index worked out at 2.21.
Regarding YCNFNSYIPRRLEEAAMQKCLVTE [K6S], the protein stability index was 2.19.
The result for YCNFNQYIPRRLEEAAMQKCLVTE [K6Q] reads 1.5.
The result for YCNFNYYIPRRLEEAAMQKCLVTE [K6Y] reads 3.05; that for YCNFNIYIPRRLEEAAMQKCLVTE [K6I], 2.52; that for YCNFNHYIPRRLEEAAMQKCLVTE [K6H], 3.4.
For YCNFNDYIPRRLEEAAMQKCLVTE [K6D], the protein stability index is 2.9.
As to YCNFNAYIPRRLEEAAMQKCLVTE [K6A], the protein stability index worked out at 2.11.
For YCNFNEYIPRRLEEAAMQKCLVTE [K6E], the protein stability index amounted to 3.37.
For YCNFNNYIPRRLEEAAMQKCLVTE [K6N], the protein stability index stood at 2.56.
The result for YCNFNGYIPRRLEEAAMQKCLVTE [K6G] reads 3.22; that for YCNFNVYIPRRLEEAAMQKCLVTE [K6V], 3.4; that for YCNFNFYIPRRLEEAAMQKCLVTE [K6F], 3.19.
The result for YCNFNKYKPRRLEEAAMQKCLVTE [I8K] reads 1.71.
In the case of YCNFNKYSPRRLEEAAMQKCLVTE [I8S] it was 2.37.
Take YCNFNKYRPRRLEEAAMQKCLVTE [I8R]: the protein stability index is 1.67.
As for YCNFNKYQPRRLEEAAMQKCLVTE [I8Q], the protein stability index came out at 1.61.
Regarding YCNFNKYNPRRLEEAAMQKCLVTE [I8N], the protein stability index came to 1.68.
In the case of YCNFNKYFPRRLEEAAMQKCLVTE [I8F] it was 2.48; in that of YCNFNKYMPRRLEEAAMQKCLVTE [I8M], 1.85; in that of YCNFNKYHPRRLEEAAMQKCLVTE [I8H], 2.58.
As for YCNFNKYPPRRLEEAAMQKCLVTE [I8P], the protein stability index was found to be 1.83.
With YCNFNKYGPRRLEEAAMQKCLVTE [I8G], the protein stability index was found to be 1.22.
In the case of YCNFNKYVPRRLEEAAMQKCLVTE [I8V], the protein stability index came out at 1.09.
The result for YCNFNKYWPRRLEEAAMQKCLVTE [I8W] reads 2.26.
As to YCNFNKYYPRRLEEAAMQKCLVTE [I8Y], the protein stability index is 1.5.
For the variant YCNFNKYAPRRLEEAAMQKCLVTE [I8A], the protein stability index came out at 1.69.
The result for YCNFNKYLPRRLEEAAMQKCLVTE [I8L] reads 2.05; that for YCNFNKYTPRRLEEAAMQKCLVTE [I8T], 1.96; that for YCNFNKYDPRRLEEAAMQKCLVTE [I8D], 2.3.
In the case of YCNFNKYEPRRLEEAAMQKCLVTE [I8E] it was 2.03.
